Values of other authors as cited in article PMC4484741.
Where two headings read alike, the source gives them in different places.

Assays:
GLP-1 receptor [1] = target: GLP-1 receptor (UniProt P43220)
GLP-1 receptor [2] = target: GLP-1 receptor (UniProt P43220); remark: listed apart in the source

Chain of GLP-1 receptor (P43220 24-463): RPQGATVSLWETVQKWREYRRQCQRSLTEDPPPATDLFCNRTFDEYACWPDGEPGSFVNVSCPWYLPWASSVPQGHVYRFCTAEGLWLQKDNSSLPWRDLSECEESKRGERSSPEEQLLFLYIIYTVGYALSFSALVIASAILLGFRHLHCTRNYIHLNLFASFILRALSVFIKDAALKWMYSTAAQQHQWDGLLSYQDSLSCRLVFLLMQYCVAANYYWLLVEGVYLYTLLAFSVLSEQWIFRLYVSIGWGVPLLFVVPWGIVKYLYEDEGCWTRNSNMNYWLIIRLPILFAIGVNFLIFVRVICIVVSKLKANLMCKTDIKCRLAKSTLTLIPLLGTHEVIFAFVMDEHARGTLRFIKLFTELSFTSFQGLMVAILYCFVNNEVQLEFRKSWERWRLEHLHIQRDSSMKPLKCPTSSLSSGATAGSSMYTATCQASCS
Chain of Exendin (9-39) 9-39 (P26349 56-86): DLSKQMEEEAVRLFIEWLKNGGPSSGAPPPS
Chain of Exendin-4 (P26349 48-86): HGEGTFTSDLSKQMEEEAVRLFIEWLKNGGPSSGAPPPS

Exendin (9-39) 9-39 (from UniProt P26349)
Kd (GLP-1 receptor [1]): 3 nM

Exendin-4 (from UniProt P26349)
Kd (GLP-1 receptor [2]): 0.14 nM
